Measurements published in article PMC7808410 (Nature methods, 2021).

Target: the molecule itself
Test: cryo-EM structure

Protein	stoichiometry N
E. coli OmpF porin channel (natural protein) AEIYNKDGNKVDLYGKAVGLHYFSKGNGENSYGGNGDMTYARLGFKGETQINSDLTGYGQWEYNFQGNNSEGADAQTGNKTRLAFAGLKYADVGSFDYGRNYGVVYDALGYTDMLPEFGGDTAYSDDFFVGRVGGVATYRNSNFFGLVDGLNFAVQYLGKNERDTARRSNGDGVGGSISYEYEGFGIVGAYGAADRTNLQEAQPLGNGKKAEQWATGLKYDANNIYLAANYGETRNATPITNKFTNTSGFANKTQDVLLVAQYQFDFGLRPSIAYTKSKAKDVEGIGDVDLVNYFEVGATYYFNKNMSTYVDYIINQIDSDNKLGVGSDDTVAVGIVYQF	3
E. coli OmpC outer membrane osmoporin channel (natural protein) AEVYNKDGNKLDLYGKVDGLHYFSDNKDVDGDQTYMRLGFKGETQVTDQLTGYGQWEYQIQGNSAENENNSWTRVAFAGLKFQDVGSFDYGRNYGVVYDVTSWTDVLPEFGGDTYGSDNFMQQRGNGFATYRNTDFFGLVDGLNFAVQYQGKNGNPSGEGFTSGVTNNGRDALRQNGDGVGGSITYDYEGFGIGGAISSSKRTDAQNTAAYIGNGDRAETYTGGLKYDANNIYLAAQYTQTYNATRVGSLGWANKAQNFEAVAQYQFDFGLRPSLAYLQSKGKNLGRGYDDEDILKYVDVGATYYFNKNMSTYVDYKINLLDDNQFTRDAGINTDNIVALGLVYQF	3
E. coli glutamate decarboxylase GadB (enzyme) MDKKQVTDLRSELLDSRFGAKSISTIAESKRFPLHEMRDDVAFQIINDELYLDGNARQNLATFCQTWDDENVHKLMDLSINKNWIDKEEYPQSAAIDLRCVNMVADLWHAPAPKNGQAVGTNTIGSSEACMLGGMAMKWRWRKRMEAAGKPTDKPNLVCGPVQICWHKFARYWDVELREIPMRPGQLFMDPKRMIEACDENTIGVVPTFGVTYTGNYEFPQPLHDALDKFQADTGIDIDMHIDAASGGFLAPFVAPDIVWDFRLPRVKSISASGHKFGLAPLGCGWVIWRDEEALPQELVFNVDYLGGQIGTFAINFSRPAGQVIAQYYEFLRLGREGYTKVQNASYQVAAYLADEIAKLGPYEFICTGRPDEGIPAVCFKLKDGEDPGYTLYDLSERLRLRGWQVPAFTLGGEATDIVVMRIMCRRGFEMDFAELLLEDYKASLKYLSDHPKLQGIAQQNSFKHT	6
